Experiment [1] deals with ClC-ec1, E. coli ClC protein (E. coli) (UniProt P37019). Put plainly: SEC; purified ClC-ec1, apparent mass around 150 kDa with associated detergent.
The target of experiment [2] is ClC-rm1, ClC protein of Ralstonia metallidurans (WP_011515329), with C-terminal 6x(His) tag (Ralstonia metallidurans). Put plainly: SEC; Superose 6 or Superdex 200, 0.03% (w/v) DDM, 150 mM NaCl, 5 mM KCl, 20 mM Tris-HCl pH 8.0; also after exchange to DM, OG or amphipol A8-35.
The target is the same in experiment [3]. Put plainly: SDS-PAGE (dimer resistant to denaturation); NUPAGE 4-12% Bis-Tris gel of ClC-rm1 eluted from Ni2+ resin or after SEC; Western blot with His tag antibody.
Experiment [4] deals with ClC-rm1_eGFP, ClC-rm1 with eGFP and a 10x(His) tag at the C-terminus (Ralstonia metallidurans). The experiment in a line: SEC; Superose 6 or Superdex 200, 0.03% (w/v) DDM, 150 mM NaCl, 5 mM KCl, 20 mM Tris-HCl pH 8.0; also after exchange to DM, OG or amphipol A8-35.

On to “ClC-ec1, E. coli ClC protein (from UniProt P37019 1-473) (natural protein)”, for which the stoichiometry N in experiment [1] is 2. As for “ClC-rm1, ClC protein of Ralstonia metallidurans (WP_011515329), with C-terminal 6x(His) tag (natural protein)”, the stoichiometry N in experiment [2] and in experiment [3] was 2 each time. “ClC-rm1_eGFP, ClC-rm1 with eGFP and a 10x(His) tag at the C-terminus (natural protein)” came in with a stoichiometry N in experiment [4] of 2.

(Values after article PMC5503242.)
